{"source": "patent US20020082273A1", "about": "“Agents for use in the treatment of alzheimer's disease” (priority 1998, published 2002)", "key": {"[1]": {"test": "Metal reduction assay, Cu^2+ to Cu^+", "format": "biochemical", "settings": "10 μM Cu^2+, PBS pH 7.4, 1 hr 37° C.", "method": "Aβ (10 μM in PBS, pH 7.4 or 6.8, as shown) was incubated for 30 minutes (37° C.) in the presence of Cu^2+10 μM ±Zn^2+ 10 μM). […] levels (n=3, ±SD) were assayed against a standard curve.\nPolypeptides (10 μM) or Vitamin C (100 μM), metal ions (10 μM, Fe(NO3)3 or Cu(NO3)2), and reduced metal ion indicators, bathophenanthrolinedisulfonic acid (BP, for Fe^2+, Sigma, 200 μM) or bathocuproinedisulfonic acid (BC, for Cu^+, Sigma, 200 μM), were coincubated in phosphate buffered saline (PBS), pH 7.4, for 1 hr at 37° C. The metal ion solutions were prepared by direct dilution in the buffer from their aqueous stocks purchased from National Institute of Standards and Technology (NIST). […] In control samples, both metal ion and indicator were present to determine the background buffer signal. As a further control, both metal ion and peptide were present in the absence of indicator to estimate the contribution of light scattering due to turbidity to the absorbance reading at these wavelengths. The net absorbances (ΔA) at 536 nm or 483 nm were obtained by deducting the absorbances from these controls from the absorbances generated by the peptide and metal in the presence of the respective indicator."}, "[2]": {"test": "Aβ aggregation assay (soluble peptide after centrifugation)", "format": "physicochemical, human", "method": "Aβ stock was diluted to 2.5 μM in 150 mM NaCl and 20 mM glycine (pH 3-4.5), MES (pH 5-6.2) or HEPES (pH 6.4-8.8), with or without metal ions, incubated (30 min., 37° C.), centrifuged (20 min., 10000 g). The amount of protein in the supernatant was determined by the Micro BCA protein assay as described above.\nThe resultant aggregated particles were sedimented by centrifugation to permit determination of soluble Aβ1-40 in the supernatant. To determine the centrifugation time required to completely sediment the aggregated particles generated under these conditions, Aβ1-40 was incubated for 30 min at 37° C. with no metal, Zn^2+ (100 μM), Cu^2+ (100 μM) and pH (5.5). Reaction mixtures were centrifuged at 10000 g for different times, or ultracentrifuged at 100000 g for 1 h. (FIG. 1). […] Aβ1-40 was incubated (30 min., 37° C.) with no metal, under acidic conditions (pH 5.5), Zn^2+ (100 μM) or Cu^2+ (100 μM), and centrifuged at 10000 g for different time intervals, or at 100,000 g (ultracentrifuged) for 1 h for comparison. All data points are means ±SD, n=3.\nSince the conformational state and solubility of Aβ is altered at different pH (Soto, C., et al., J. Neurochem. 63:1191-1198 (1994)), the effects of [H^+] on Zn^2+- and […] Aβ1-40 aggregation were studied. […] All data points are means ±SD, n=3. [H^+] alone precipitates Aβ1-40 (2.5 μM) as the solution is lowered below pH 7.4, and dramatically once the pH falls below 6.3 (FIG. 4A). At pH 5.0, 80% of the peptide is precipitated, but the peptide is not aggregated by acidic environments below pH 5, confirming and extending earlier reports on the effect of pH on Aβ solubility (Burdick, D., J. Biol. Chem. 267:546-554 (1992)). Zn^2+ (30 μM) induced a constant level (˜50%) of aggregation between pH 6.2-8.5, while below pH 6.0, aggregation could be explained solely by the effect of [H^+]."}, "[3]": {"test": "Metal reduction assay, Fe^3+ to Fe^2+", "format": "biochemical", "settings": "10 μM Fe^3+, PBS pH 7.4, 1 hr 37° C.", "method": "The metal reduction assay was performed using a 96-well microtiter plate (Costar) based upon a modification of established protocols (Landers, J. W., et al., Amer. Clin. Path. 29:590 (1958); Landers, J. W., et al., Clinica Chimica Acta 3:329 (1958)). Polypeptides (10 μM) or Vitamin C (100 μM), metal ions (10 μM, Fe(NO3)3 or Cu(NO3)2), and reduced metal ion indicators, bathophenanthrolinedisulfonic acid (BP, for Fe^2+, Sigma, 200 μM) or bathocuproinedisulfonic acid (BC, for Cu^+, Sigma, 200 μM), were coincubated in phosphate buffered saline (PBS), pH 7.4, for 1 hr at 37° C. The metal ion solutions were prepared by direct dilution in the buffer from their aqueous stocks purchased from National Institute of Standards and Technology (NIST). Absorbances were then measured at 536 mn (Fe^2+-BP complex) and 483 nm (Cu^+-BC complex), respectively, using a 96-well plate reader (SPECTRAmax 250, Molecular Devices, CA). In control samples, both metal ion and indicator were present to determine the background buffer signal. As a further control, both metal ion and peptide were present in the absence of indicator to estimate the contribution of light scattering due to turbidity to the absorbance reading at these wavelengths. The net absorbances (ΔA) at 536 nm or 483 nm were obtained by deducting the absorbances from these controls from the absorbances generated by the peptide and metal in the presence of the respective indicator.\nThe concentrations of reduced metal ions (Fe^2+ or Cu^+) were quantified based on the formula: Fe^2+ or Cu^+ (˜M)=A*10^6/(L*M), where L is the measured equivalent vertical pathlength for a well of 300 μL volume as described in the instrument's specifications manual (0.856 cm for Fe^2+; 1.049 cm for Cu^+); M is the known molecular absorbance (M^−1 cm^−1) which is 7124 (for Fe^2+-BP complex) or 2762 (for Cu^+-BC complex)."}}, "note": "Where “and” joins values, the source holds several entries; their conditions need not be identical. Equal entries are not always repeated.", "data": [{"substance": "Aβ1-40: synthetic human Aβ peptide, residues 1-40", "values": [{"measurement": "reduction of available Cu^2+", "setting": "[1]", "value": 60, "unit": "%"}, {"measurement": "available peptide aggregated by Cu^2+", "setting": "[2]; Cu^2+ (30 μM), pH 6.8", "value": "> 85% and 85%"}, {"measurement": "level of aggregation induced by Zn^2+", "setting": "[2]; Zn^2+ 30 μM, pH 6.2-8.5", "value": "~50", "unit": "%"}, {"measurement": "aggregation in the presence of Cu", "setting": "[2]; pH 7.1", "value": "approx. 30%"}, {"measurement": "reduction of available Fe^3+", "setting": "[3]", "value": 12, "unit": "%"}]}]}
